# Results published in JP2022028645A (dated 2022).
# Experiments:
# [1] = molecular target: T1, Human TYRP1 extracellular domain (ECD), monomeric fusion to human Fc domain with knob-into-hole and PG LALA … (human, UniProt P01857 104-328 = IgG part); test: SPR (Biacore T200), TYRP1 ECD-Fc captured by anti-PGLALA antibody, Fab 3-fold dilution series as analyte, 1:1 Langmuir fit
# T1 construct: also called ヒトTYRP1
# [2] = molecular target: T2, Cynomolgus TYRP1 extracellular domain (ECD), monomeric fusion to human Fc domain with knob-into-hole and PG … (cynomolgus monkey, UniProt P01857 104-328 = IgG part); test: as above
# T2 construct: also called カニクイザルTYRP1
# [3] = molecular target: T3, Mouse TYRP1 extracellular domain (ECD), monomeric fusion to human Fc domain with knob-into-hole and PG LALA … (mouse, UniProt P01857 104-328 = IgG part); test: as above
# T3 construct: also called マウスTYRP1
# [4] = molecular target: T4, Human EGFRvIII expressed on cells (CHO-EGFRvIII, DK-MG, U87MG-EGFRvIII) (human, UniProt P00533 298-1210); test: flow cytometry on CHO-EGFRvIII and EGFRvIII-positive DK-MG cells
# T4 construct: also called EGFRvIII; huEGFRvIII
# [5] = molecular target: T4, Human EGFRvIII expressed on cells …; test: SPR and flow cytometry on U87MG-EGFRvIII and MKN-45 cells, compared with the parental binder
# [6] = molecular target: T5, Recombinant human CD3 antigen: heterodimer of CD3 delta and CD3 epsilon ectodomains fused to human Fc domain … (human); test: SPR (Biacore T200), antibody captured by anti-Fab, CD3 antigen 10 ug/ml, relative active concentration after 14 days of temperature stress
# T5 construct: also called 組換えCD3; ヒトCD3
# [7] = molecular target: T4, Human EGFRvIII expressed on cells …; test: flow cytometry on CHO-EGFRvIII cells, TCB against the corresponding IgG
# [8] = molecular target: T5, Recombinant human CD3 antigen: …; test: SPR (Biacore T200), TCB captured at 20 nM by anti-PGLALA antibody, CD3 antigen as analyte, 1:1 Langmuir fit
# [9] = molecular target: T6, Recombinant cynomolgus CD3 antigen: heterodimer of cynomolgus CD3 delta and CD3 epsilon ectodomains fused to … (cynomolgus monkey); test: as above
# T6 construct: also called カニクイザルCD3
# [10] = molecular target: T7, EGFRvIII-ECD avi his (extracellular domain of human EGFRvIII fused to C-terminal Avi-tag and His-tag) (human); test: SPR (Biacore T200), TCB (5 nM) captured by anti-Fc antibody, EGFRvIII-ECD avi his 3-fold dilution series as analyte, 1:1 Langmuir fit
# T7 construct: also called 組み換えEGFRvIII; EGFRvIII抗原
# [11] = molecular target: T5, Recombinant human CD3 antigen: …; test: SPR (Biacore T200), TCB captured by anti-PGLALA antibody, CD3 antigen 12.35-3000 nM as analyte, 1:1 Langmuir fit
# [12] = molecular target: T6, Recombinant cynomolgus CD3 antigen: …; test: as above
binder,measurement,setting,value
"TYRP1 Fab断片 (Fab fragment of the humanized TA99-derived TYRP1 binder, made by plasmin digestion of the corresponding antibody) (Fab, V domains shown, also called TYRP1 Fab) VH: QVQLVQSGAEVKKPGASVKVSCKASGFNIKDYFLHWVRQAPGQGLEWMGWINPDNGNTVYAQKFQGRVTMTADTSTSTVYMELSSLRSEDTAVYYCTRRDYTYEKAALDYWGQGTLVTVSS VL: DIQMTQSPSSLSASVGDRVTITCRASGNIYNYLAWYQQKPGKVPKLLIYDAKTLADGVPSRFSGSGSGTDFTLTISSLQPEDVATYYCQHFWSLPFTFGQGTKLEIK",Kd,[1],0.13 nM
same,Kd,[2],0.18 nM
same,Kd,[3],0.53 nM
"EGFRvIII IgG PGLALA P056.021 (antibody, human IgG1, V domains shown, Human IgG1 with P329G L234A L235A; also called P056.021) VH: EVQLVQSGAEVKKPGESLKISCKGSGYSFDSYWIAWVRQMPGKGLEWMGVIHPYDSDTRYSPSFQGQVTISADKSISTAYLQWSSLKASDTAMYYCARVSRSSYAFDYWGQGTLVTVSS VL: not shown",binding result,[4],binds
"EGFRvIII IgG PGLALA P063.056 (affinity-matured EGFRvIII binder) (antibody, human IgG1, V domains shown, Human IgG1 PGLALA; also called P063.056) VH: EVQLVQSGAEVKKPGESLKISCKGSGYSFDSYWIAWVRQMPGKGLEWMGVIHPYDSDTRYSPSFQGQVTISADKSISTAYLQWSSLKASDTAMYYCARVSRSSYAFDYWGQGTLVTVSS VL: not shown",binding result,[5],binds
"CD3 opt ヒトIgG1 PGLALA (optimized CD3 binder, human IgG1 with P329G L234A L235A) (antibody, V domains shown, also called CD3opt; CD3opt IgG PGLALA) VH: EVQLLESGGGLVQPGGSLRLSCAASGFQFSSYAMNWVRQAPGKGLEWVSRIRSKYNNYATYYADSVKGRFTISRDDSKNTLYLQMNSLRAEDTAVYYCVRHTTFPSSYVSYYGYWGQGTLVTVSS VL: QAVVTQEPSLTVSPGGTVTLTCGSSTGAVTTSNYANWVQEKPGQAFRGLIGGTNKRAPGTPARFSGSLLGGKAALTLSGAQPEDEAEYYCALWYSNLWVFGGGTKLTVLR",binding result,[6],binds
"EGFRvIII TCB P056.021 (with CD3orig, 2+1 IgG CrossFab inverted) (bispecific antibody, V domains shown, only the variable domains can be tied to it; also called P056.021 EGFRvIII TCB; parental EGFRvIII TCB) VH 1: EVQLVQSGAEVKKPGESLKISCKGSGYSFDSYWIAWVRQMPGKGLEWMGVIHPYDSDTRYSPSFQGQVTISADKSISTAYLQWSSLKASDTAMYYCARVSRSSYAFDYWGQGTLVTVSS VL 1: not shown VH 2: not shown VL 2: QAVVTQEPSLTVSPGGTVTLTCGSSTGAVTTSNYANWVQEKPGQAFRGLIGGTNKRAPGTPARFSGSLLGGKAALTLSGAQPEDEAEYYCALWYSNLWVFGGGTKLTVL",binding result,[7],binds
"EGFRvIII TCB CD3 opt (EGFRvIII binder P063.056 and optimized CD3 binder, 2+1 IgG CrossFab inverted) (bispecific antibody, Chain roles inferred as for TYRP1 TCB; also called EGFRvIII TCB; P063.056 EGFRvIII TCB with CD3opt) heavy 1: not shown heavy 2: EVQLVQSGAEVKKPGESLKISCKGSGYSFDSYWIAWVRQMPGKGLEWMGVIHPYDSDTRYSPSFQGQVTISADKSISTAYLQWSSLKASDTAMYYCARVSRSSYAFDYWGQGTLVTVSSASTKGPSVFPLAPSSKSTSGGTAALGCLVEDYFPEPVTVSWNSGALTSGVHTFPAVLQSSGLYSLSSVVTVPSSSLGTQTYICNVNHKPSNTKVDEKVEPKSCDKTHTCPPCPAPEAAGGPSVFLFPPKPKDTLMISRTPEVTCVVVDVSHEDPEVKFNWYVDGVEVHNAKTKPREEQYNSTYRVVSVLTVLHQDWLNGKEYKCKVSNKALGAPIEKTISKAKGQPREPQVCTLPPSRDELTKNQVSLSCAVKGFYPSDIAVEWESNGQPENNYKTTPPVLDSDGSFFLVSKLTVDKSRWQQGNVFSCSVMHEALHNHYTQKSLSLSP light 1: not shown light 2: EVQLLESGGGLVQPGGSLRLSCAASGFQFSSYAMNWVRQAPGKGLEWVSRIRSKYNNYATYYADSVKGRFTISRDDSKNTLYLQMNSLRAEDTAVYYCVRHTTFPSSYVSYYGYWGQGTLVTVSSASVAAPSVFIFPPSDEQLKSGTASVVCLLNNFYPREAKVQWKVDNALQSGNSQESVTEQDSKDSTYSLSSTLTLSKADYEKHKVYACEVTHQGLSSPVTKSFNRGEC",Kd,[8],30 nM
same,Kd,[9],20 nM
same,Kd,[10],6 nM
"EGFRvIII TCB CD3 orig (EGFRvIII binder P063.056 and original CD3 binder, 2+1 IgG CrossFab inverted) (bispecific antibody, chain roles inferred; also called P063.056 EGFRvIII TCB with CD3orig) heavy 1: not shown heavy 2: EVQLVQSGAEVKKPGESLKISCKGSGYSFDSYWIAWVRQMPGKGLEWMGVIHPYDSDTRYSPSFQGQVTISADKSISTAYLQWSSLKASDTAMYYCARVSRSSYAFDYWGQGTLVTVSSASTKGPSVFPLAPSSKSTSGGTAALGCLVEDYFPEPVTVSWNSGALTSGVHTFPAVLQSSGLYSLSSVVTVPSSSLGTQTYICNVNHKPSNTKVDEKVEPKSCDKTHTCPPCPAPEAAGGPSVFLFPPKPKDTLMISRTPEVTCVVVDVSHEDPEVKFNWYVDGVEVHNAKTKPREEQYNSTYRVVSVLTVLHQDWLNGKEYKCKVSNKALGAPIEKTISKAKGQPREPQVCTLPPSRDELTKNQVSLSCAVKGFYPSDIAVEWESNGQPENNYKTTPPVLDSDGSFFLVSKLTVDKSRWQQGNVFSCSVMHEALHNHYTQKSLSLSP light 1: not shown light 2: EVQLLESGGGLVQPGGSLRLSCAASGFTFSTYAMNWVRQAPGKGLEWVSRIRSKYNNYATYYADSVKGRFTISRDDSKNTLYLQMNSLRAEDTAVYYCVRHGNFGNSYVSWFAYWGQGTLVTVSSASVAAPSVFIFPPSDEQLKSGTASVVCLLNNFYPREAKVQWKVDNALQSGNSQESVTEQDSKDSTYSLSSTLTLSKADYEKHKVYACEVTHQGLSSPVTKSFNRGEC",Kd,[8],40 nM
same,Kd,[10],6 nM
"TYRP1 TCB CD3 opt (T cell bispecific antibody to CD3 and TYRP1 with optimized CD3 binder, 2+1 IgG CrossFab inverted, charge modifications, PGLALA) (bispecific antibody, also called TYRP1 TCB; TYRP-1 TCB) heavy 1: not shown heavy 2: QVQLVQSGAEVKKPGASVKVSCKASGFNIKDYFLHWVRQAPGQGLEWMGWINPDNGNTVYAQKFQGRVTMTADTSTSTVYMELSSLRSEDTAVYYCTRRDYTYEKAALDYWGQGTLVTVSSASTKGPSVFPLAPSSKSTSGGTAALGCLVEDYFPEPVTVSWNSGALTSGVHTFPAVLQSSGLYSLSSVVTVPSSSLGTQTYICNVNHKPSNTKVDEKVEPKSCDKTHTCPPCPAPEAAGGPSVFLFPPKPKDTLMISRTPEVTCVVVDVSHEDPEVKFNWYVDGVEVHNAKTKPREEQYNSTYRVVSVLTVLHQDWLNGKEYKCKVSNKALGAPIEKTISKAKGQPREPQVCTLPPSRDELTKNQVSLSCAVKGFYPSDIAVEWESNGQPENNYKTTPPVLDSDGSFFLVSKLTVDKSRWQQGNVFSCSVMHEALHNHYTQKSLSLSP light 1: DIQMTQSPSSLSASVGDRVTITCRASGNIYNYLAWYQQKPGKVPKLLIYDAKTLADGVPSRFSGSGSGTDFTLTISSLQPEDVATYYCQHFWSLPFTFGQGTKLEIKRTVAAPSVFIFPPSDRKLKSGTASVVCLLNNFYPREAKVQWKVDNALQSGNSQESVTEQDSKDSTYSLSSTLTLSKADYEKHKVYACEVTHQGLSSPVTKSFNRGEC light 2: EVQLLESGGGLVQPGGSLRLSCAASGFQFSSYAMNWVRQAPGKGLEWVSRIRSKYNNYATYYADSVKGRFTISRDDSKNTLYLQMNSLRAEDTAVYYCVRHTTFPSSYVSYYGYWGQGTLVTVSSASVAAPSVFIFPPSDEQLKSGTASVVCLLNNFYPREAKVQWKVDNALQSGNSQESVTEQDSKDSTYSLSSTLTLSKADYEKHKVYACEVTHQGLSSPVTKSFNRGEC",Kd,[11],50 nM
same,Kd,[12],20 nM
"TYRP1 TCB CD3 orig (T cell bispecific antibody to CD3 and TYRP1 with original CD3 binder, 2+1 IgG CrossFab inverted) (bispecific antibody, chain roles inferred as for the CD3opt molecule) heavy 1: not shown heavy 2: QVQLVQSGAEVKKPGASVKVSCKASGFNIKDYFLHWVRQAPGQGLEWMGWINPDNGNTVYAQKFQGRVTMTADTSTSTVYMELSSLRSEDTAVYYCTRRDYTYEKAALDYWGQGTLVTVSSASTKGPSVFPLAPSSKSTSGGTAALGCLVEDYFPEPVTVSWNSGALTSGVHTFPAVLQSSGLYSLSSVVTVPSSSLGTQTYICNVNHKPSNTKVDEKVEPKSCDKTHTCPPCPAPEAAGGPSVFLFPPKPKDTLMISRTPEVTCVVVDVSHEDPEVKFNWYVDGVEVHNAKTKPREEQYNSTYRVVSVLTVLHQDWLNGKEYKCKVSNKALGAPIEKTISKAKGQPREPQVCTLPPSRDELTKNQVSLSCAVKGFYPSDIAVEWESNGQPENNYKTTPPVLDSDGSFFLVSKLTVDKSRWQQGNVFSCSVMHEALHNHYTQKSLSLSP light 1: DIQMTQSPSSLSASVGDRVTITCRASGNIYNYLAWYQQKPGKVPKLLIYDAKTLADGVPSRFSGSGSGTDFTLTISSLQPEDVATYYCQHFWSLPFTFGQGTKLEIKRTVAAPSVFIFPPSDRKLKSGTASVVCLLNNFYPREAKVQWKVDNALQSGNSQESVTEQDSKDSTYSLSSTLTLSKADYEKHKVYACEVTHQGLSSPVTKSFNRGEC light 2: EVQLLESGGGLVQPGGSLRLSCAASGFTFSTYAMNWVRQAPGKGLEWVSRIRSKYNNYATYYADSVKGRFTISRDDSKNTLYLQMNSLRAEDTAVYYCVRHGNFGNSYVSWFAYWGQGTLVTVSSASVAAPSVFIFPPSDEQLKSGTASVVCLLNNFYPREAKVQWKVDNALQSGNSQESVTEQDSKDSTYSLSSTLTLSKADYEKHKVYACEVTHQGLSSPVTKSFNRGEC",Kd,[11],50 nM
